Consider 32 molecules from patent US20240270846A1 (published 2024).

B1: GLS3000 Q93S one-arm antibody (antibody, human IgG1, kappa, L234A L235A, N297A, name in Kabat numbering)
light: DIVMTQSPLSLPVTPGEPASISCRSSQSLVHSNRNTYLHWYQQKPGQAPRLLIYKVSNRFSGVPDRFSGSGSGTDFTLKISRVEAEDVGVYYCGQGTSVPYTFGQGTKLEIKRTVAAPSVFIFPPSDEQLKSGTASVVCLLNNFYPREAKVQWKVDNALQSGNSQESVTEQDSKDSTYSLSSTLTLSKADYEKHKVYACEVTHQGLSSPVTKSFNRGEC
heavy: QVQLVESGGGVVQPGRSLRLSCAASGFTFSNAWMHWVRQAPGKGLEWVAQIKAKSNNYATYYAESVKGRFTISRDDSKNSLYLQMNSLKTEDTAVYYCRYVHYGAYYGVDAWGQGTTVTVSSASTKGPSVFPLAPSSKSTSGGTAALGCLVKDYFPEPVTVSWNSGALTSGVHTFPAVLQSSGLYSLSSVVTVPSSSLGTQTYICNVNHKPSNTKVDKKVEPKSCDKTHTCPPCPAPEAAGGPSVFLFPPKPKDTLMISRTPEVTCVVVDVSHEDPEVKFNWYVDGVEVHNAKTKPREEQYASTYRVVSVLTVLHQDWLNGKEYKCKVSNKALPAPIEKTISKAKGQPREPQVYTLPPSRCELTKNQVSLSCAVKGFYPSDIAVEWESNGQPENNYKTTPPVLDSDGSFFLVSKLTVDKSRWQQGNVFSCSVMHEALHNHYTQKSLSLSPDYKDDDDK
chain: EPKSSDKTHTCPPCPAPELLGGPSVFLFPPKPKDTLMISRTPEVTCVVVDVSHEDPEVKFNWYVDGVEVHNAKTKPREEQYNSTYRVVSVLTVLHQDWLNGKEYKCKVSNKALPAPIEKTISKAKGQPREPQVCTLPPSRDELTKNQVSLWCLVKGFYPSDIAVEWESNGQPENNYKTTPPVLDSDGSFFLYSKLTVDKSRWQQGNVFSCSVMHEALHNRYTQKSLSLSP
B2: GLS3000 R54W one-arm antibody (antibody, human IgG1, kappa, L234A L235A, N297A, name in Kabat numbering)
light: B1 light with R59W, S98Q
heavy: B1 heavy
chain: B1 chain
B3: GLS3000 S56M one-arm antibody (antibody, human IgG1, kappa, L234A L235A, N297A, name in Kabat numbering)
light: B1 light with S61M, S98Q
heavy: B1 heavy
chain: B1 chain
B4: GLS3000 S56V one-arm antibody (antibody, human IgG1, kappa, L234A L235A, N297A, name in Kabat numbering)
light: B1 light with S61V, S98Q
heavy: B1 heavy
chain: B1 chain
B5: GLS3000 S56G one-arm antibody (antibody, human IgG1, kappa, L234A L235A, N297A, name in Kabat numbering)
light: B1 light with S61G, S98Q
heavy: B1 heavy
chain: B1 chain
B6: GLS3000 T31K one-arm antibody (antibody, human IgG1, kappa, L234A L235A, N297A, name in Kabat numbering)
light: B1 light with T36K, S98Q
heavy: B1 heavy
chain: B1 chain
B7: GLS3000 S56T one-arm antibody (antibody, human IgG1, kappa, L234A L235A, N297A, name in Kabat numbering)
light: B1 light with S61T, S98Q
heavy: B1 heavy
chain: B1 chain
B8: GLS3000 R54G one-arm antibody (antibody, human IgG1, kappa, L234A L235A, N297A, name in Kabat numbering)
light: B1 light with R59G, S98Q
heavy: B1 heavy
chain: B1 chain
B9: GLS3000 S56F one-arm antibody (antibody, human IgG1, kappa, L234A L235A, N297A, name in Kabat numbering)
light: B1 light with S61F, S98Q
heavy: B1 heavy
chain: B1 chain
B10: GLS3000 S56P one-arm antibody (antibody, human IgG1, kappa, L234A L235A, N297A, name in Kabat numbering)
light: B1 light with S61P, S98Q
heavy: B1 heavy
chain: B1 chain
B11: GLS3000 R54E one-arm antibody (antibody, human IgG1, kappa, L234A L235A, N297A, name in Kabat numbering)
light: B1 light with R59E, S98Q
heavy: B1 heavy
chain: B1 chain
B12: GLS3000 T31N one-arm antibody (antibody, human IgG1, kappa, L234A L235A, N297A, name in Kabat numbering)
light: B1 light with T36N, S98Q
heavy: B1 heavy
chain: B1 chain
B13: GLS3000 S56K one-arm antibody (antibody, human IgG1, kappa, L234A L235A, N297A, name in Kabat numbering)
light: B1 light with S61K, S98Q
heavy: B1 heavy
chain: B1 chain
B14: GLS3000 T31E one-arm antibody (antibody, human IgG1, kappa, L234A L235A, N297A, name in Kabat numbering)
light: B1 light with T36E, S98Q
heavy: B1 heavy
chain: B1 chain
B15: GLS3000 S56W one-arm antibody (antibody, human IgG1, kappa, L234A L235A, N297A, name in Kabat numbering)
light: B1 light with S61W, S98Q
heavy: B1 heavy
chain: B1 chain
B16: GLS3000 S52Y one-arm antibody (antibody, human IgG1, kappa, L234A L235A, N297A, name in Kabat numbering)
light: B1 light with S57Y, S98Q
heavy: B1 heavy
chain: B1 chain
B17: GLS3000 S56Y one-arm antibody (antibody, human IgG1, kappa, L234A L235A, N297A, name in Kabat numbering)
light: B1 light with S61Y, S98Q
heavy: B1 heavy
chain: B1 chain
B18: GLS3000 S52P one-arm antibody (antibody, human IgG1, kappa, L234A L235A, N297A, name in Kabat numbering)
light: B1 light with S57P, S98Q
heavy: B1 heavy
chain: B1 chain
B19: GLS3000 R54T one-arm antibody (antibody, human IgG1, kappa, L234A L235A, N297A, name in Kabat numbering)
light: B1 light with R59T, S98Q
heavy: B1 heavy
chain: B1 chain
B20: GLS3000 R54S one-arm antibody (antibody, human IgG1, kappa, L234A L235A, N297A, name in Kabat numbering)
light: B1 light with R59S, S98Q
heavy: B1 heavy
chain: B1 chain
B21: GLS3000 S56N one-arm antibody (antibody, human IgG1, kappa, L234A L235A, N297A, name in Kabat numbering)
light: B1 light with S61N, S98Q
heavy: B1 heavy
chain: B1 chain
B22: GLS3000 R77S one-arm antibody (antibody, human IgG1, kappa, L234A L235A, N297A, name in Kabat numbering)
light: B1 light with R82S, S98Q
heavy: B1 heavy
chain: B1 chain
B23: GLS3000 S56E one-arm antibody (antibody, human IgG1, kappa, L234A L235A, N297A, name in Kabat numbering)
light: B1 light with S61E, S98Q
heavy: B1 heavy
chain: B1 chain
B24: GLS3000 S56Q one-arm antibody (antibody, human IgG1, kappa, L234A L235A, N297A, name in Kabat numbering)
light: B1 light with S61Q, S98Q
heavy: B1 heavy
chain: B1 chain
B25: GLS3000 S56I one-arm antibody (antibody, human IgG1, kappa, L234A L235A, N297A, name in Kabat numbering)
light: B1 light with S61I, S98Q
heavy: B1 heavy
chain: B1 chain
B26: GLS3000 S56R one-arm antibody (antibody, human IgG1, kappa, L234A L235A, N297A, name in Kabat numbering)
light: B1 light with S61R, S98Q
heavy: B1 heavy
chain: B1 chain
B27: GLS3000 S56L one-arm antibody (antibody, human IgG1, kappa, L234A L235A, N297A, name in Kabat numbering)
light: B1 light with S61L, S98Q
heavy: B1 heavy
chain: B1 chain
B28: GLS3000 R54Q one-arm antibody (antibody, human IgG1, kappa, L234A L235A, N297A, name in Kabat numbering)
light: B1 light with R59Q, S98Q
heavy: B1 heavy
chain: B1 chain
B29: GLS3000 T31I one-arm antibody (antibody, human IgG1, kappa, L234A L235A, N297A, name in Kabat numbering)
light: B1 light with T36I, S98Q
heavy: B1 heavy
chain: B1 chain
B30: GLS3000 S52Q one-arm antibody (antibody, human IgG1, kappa, L234A L235A, N297A, name in Kabat numbering)
light: B1 light with S57Q, S98Q
heavy: B1 heavy
chain: B1 chain
B31: GLS3000 R54P one-arm antibody (antibody, human IgG1, kappa, L234A L235A, N297A, name in Kabat numbering)
light: B1 light with R59P, S98Q
heavy: B1 heavy
chain: B1 chain
B32: GLS3000 S56H one-arm antibody (antibody, human IgG1, kappa, L234A L235A, N297A, name in Kabat numbering)
light: B1 light with S61H, S98Q
heavy: B1 heavy
chain: B1 chain

Substitutions are numbered along the chain they refer to. Numbers in names are those of the source.

T1 sequence (P07766 23-126): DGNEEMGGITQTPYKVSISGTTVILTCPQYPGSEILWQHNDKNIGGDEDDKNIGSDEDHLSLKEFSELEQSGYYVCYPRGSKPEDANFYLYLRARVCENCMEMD

This assay has as its target T1, CD3 epsilon homodimer protein (UniProt P07766 23-126).
T1 construct: Construct of the homodimer is not described; also called CD3 (CD3 epsilon)
Description: SPR Biacore T200, CD3e homodimer on chip, antibody analyte.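 Further: CD3 epsilon homodimer amine-coupled on CM4 sensor chip, antibodies injected as analyte at 25 °C in HBS-EP+, ratio ≥0.8 taken as binding retained versus unaltered parent antibody.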
Turning to B1, the “ratio of amounts bound (altered form/GLS3000)” value turned out to be 0.96.

Consider B2, for which the “ratio of amounts bound (altered form/GLS3000)” value came out at 0.78. On to B3, for which the “ratio of amounts bound (altered form/GLS3000)” value is 1.05. For the molecule B4, the “ratio of amounts bound (altered form/GLS3000)” value was found to be 0.95.

With B5, the “ratio of amounts bound (altered form/GLS3000)” value was 0.92. Regarding B6, the “ratio of amounts bound (altered form/GLS3000)” value worked out at 1.04. B7: the “ratio of amounts bound (altered form/GLS3000)” value is 0.97.

Regarding B8, the “ratio of amounts bound (altered form/GLS3000)” value was determined as 0.67. Regarding B9, the “ratio of amounts bound (altered form/GLS3000)” value amounted to 1.32. Next, B10: 0.95. Regarding B11, the “ratio of amounts bound (altered form/GLS3000)” value worked out at 0.58. Next, B12: 0.32. Turning to B13, the “ratio of amounts bound (altered form/GLS3000)” value stood at 1.46. Consider B14, for which the “ratio of amounts bound (altered form/GLS3000)” value amounted to 0.49. As to B15, the “ratio of amounts bound (altered form/GLS3000)” value worked out at 1.38. Take B16: the “ratio of amounts bound (altered form/GLS3000)” value turned out to be 1.12. For B17 the value was 1.46; for B18, 0.33; for B19, 0.65. Next, B20: 0.79; B21: 0.92; B22: 0.92. In the case of B23, the “ratio of amounts bound (altered form/GLS3000)” value turned out to be 0.71. On to B24, for which the “ratio of amounts bound (altered form/GLS3000)” value stood at 1.04.

Take B25: the “ratio of amounts bound (altered form/GLS3000)” value was 0.99. Take B26: the “ratio of amounts bound (altered form/GLS3000)” value stood at 1.36. For B27 the value was 1.02; for B28, 0.68; for B29, 0.97.

Turning to B30, the “ratio of amounts bound (altered form/GLS3000)” value was determined as 1.05. Regarding B31, the “ratio of amounts bound (altered form/GLS3000)” value was found to be 0.84. Take B32: the “ratio of amounts bound (altered form/GLS3000)” value turned out to be 1.05.
